Experimental data published in publication PMC10425836, “Cryo‐EM structure of antibacterial efflux transporter QacA from Staphylococcus aureus reveals a novel extracellular loop with allosteric role” (The EMBO Journal, 2023).

Columns and labels:
[1] = target: T1, QacAWT tagged with GFP (Staphylococcus aureus, UniProt P0A0J9); test: immunostaining of cells or tissue; NHS-Rhodamine labelled ICabs (0.03 mg/ml) added to E. coli spheroplasts expressing GFP-tagged QacA, room temperature 30 min, washed, confocal microscopy; settings: one partner purified
T1 construct: QacA wild type, 14 transmembrane helix MFS (DHA2) antibacterial efflux antiporter of Staphylococcus aureus; codon-optimized synthetic gene in pBAD-His8; the methods of the spheroplast imaging name only QacA_(D411N)-GFP; also called QacA-GFP; source: on E. coli spheroplasts; not shown: GFP, C-terminal, kept

[2] = target: ICab A4 displayed on the yeast cell surface; test: flow cytometry on cells; yeast cells displaying the ICab incubated with different concentrations of purified QacA_(D411N)-GFP; population shift-based titration; one site-specific binding fit; apparent Kd
[3] = target: the identified ICabs; test: as above
[4] = target: ICab B7 displayed on the yeast cell surface; test: as above
[5] = target: five unique clones; test: flow cytometry on cells; yeast cells displaying individual ICab clones with QacA_(D411N)-GFP; percent population shift

B1: ICab B7, purified (VHH)
VHH: QVQLQESGGGSVQAGGSLRLSCAASGYTNSRKCMGWFRQIPGKEREGVAAIYGFGRGLILYADSVKGRFTISQDNAKNTVYLQMNSLKPEDTAMYYCAADSPGSCLSRSGYNYWGQGTQVTVSS
notes: single-domain Indian camelid antibody B7 from a camel immunised with QacA; source: E. coli SHuffle T7, purified (Ni-NTA, SEC)
B1: binds [1].

B2: QacA_(D411N)-GFP (natural protein)
chain: MISFFTKTTDMMTSKKRWTALVVLAVSLFVVTMDMTILIMALPELVRELEPSGTQQLWIVDIYSLVLAGFIIPLSAFADKWGRKKALLTGFALFGLVSLAIFFAESAEFVIAIRFLLGIAGALIMPTTLSMIRVIFENPKERATALAVWSIASSIGAVFGPIIGGALLEQFSWHSAFLINVPFAIIAVVAGLFLLPESKLSKEKSHSWDIPSTILSIAGMIGLVWSIKEFSKEGLADIIPWVVIVLAITMIVIFVKRNLSSSDPMLDVRLFKKRSFSAGTIAAFMTMFAMASVLLLASQWLQVVEELSPFKAGLYLLPMAIGDMVFAPIAPGLAARFGPKIVLPSGIGIAAIGMFIMYFFGHPLSYSTMALALILVGAGMASLAVASALIMLETPTSKAGNAAAVEESMYNLGNVFGVAVLGSLSSMLYRVFLDISSFSSKGIVGDLAHVAEESVVGAVEVAKATGIKQLANEAVTSFNDAFVATALVGGIIMIIISIVVYLLIPKSLDITKQK
B2 gave a Kd [2] of 65 nM, a Kd [3] of 59 nM and a Kd [4] of 100 nM. The population shift [5] was 65 to 97%.

B3: ICab A4, purified (VHH)
VHH: QVQLQESGGGSVQTGGSLRLSCAASGYRYSDNCVGWFRQAPGREREAVATYNSGSSTWYADSVKGRFTISQDSAKSTVYLQMNNLKPEDTAMYYCAGRNRLGSYCYMTGDFAYWGQGTQVTVSS
notes: single-domain Indian camelid antibody A4 from a camel immunised with QacA; source: E. coli SHuffle T7, purified (Ni-NTA, SEC)
B3: binds [1].
